From the Immune Epitope Database (IEDB)

Columns and labels:
HLA-B*07:02 [1] = assay: IEDB peptide-MHC binding, purified MHC/competitive/radioactivity; filed as Kd, often an IC50 or EC50 that approximates it; ≥ and ≤ were set here for values at or beyond the usual limits of such assays; conditions: source organism: Dengue virus 4 Philippines/H241/1956
HLA-B*15:01 [2] = assay: as above
HLA-A*01:01 [3] = assay: as above
HLA-A*24:02 [4] = assay: as above
HLA-A*30:02 = assay: as above
HLA-A*26:01 [5] = assay: as above
HLA-A*23:01 = assay: as above
HLA-A*29:02 = assay: as above
HLA-B*44:03 = assay: as above
HLA-B*44:02 [6] = assay: IEDB peptide-MHC binding, purified MHC/direct/fluorescence; filed as Kd, often an IC50 or EC50 that approximates it; ≥ and ≤ were set here for values at or beyond the usual limits of such assays; conditions: source organism: Brucella suis
HLA-A*02:01 [7] = assay: as above; conditions: source organism: Brucella suis
HLA-B*07:02 [8] = assay: as above; conditions: source organism: Brucella suis
HLA-A*69:01 = assay: as above; conditions: source organism: Brucella suis
HLA-A*01:01 [9] = assay: as above; conditions: source organism: Brucella suis
HLA-B*58:01 = assay: as above; conditions: source organism: Brucella suis
HLA-B*08:01 [10] = assay: as above; conditions: source organism: Brucella suis
HLA-A*11:01 = assay: as above; conditions: source organism: Brucella suis
HLA-A*26:01 [11] = assay: as above
HLA-A*03:01 = assay: as above; conditions: source organism: Brucella suis
HLA-A*31:01 = assay: as above; conditions: source organism: Brucella suis
HLA-B*40:01 = assay: as above; conditions: source organism: Brucella suis
HLA-B*15:01 [12] = assay: as above; conditions: source organism: Brucella suis
HLA-B*27:05 = assay: as above; conditions: source organism: Brucella suis
HLA-A*24:02 [13] = assay: IEDB peptide-MHC binding, purified MHC/competitive/fluorescence; ≥ and ≤ were set here for values at or beyond the usual limits of such assays
HLA-B*08:01 [14] = assay: IEDB peptide-MHC binding, purified MHC/competitive/radioactivity; filed as Kd, often an IC50 or EC50 that approximates it; ≥ and ≤ were set here for values at or beyond the usual limits of such assays; conditions: source organism: Vaccinia virus WR
HLA-A*02:01 [15] = assay: IEDB peptide-MHC binding, purified MHC/competitive/fluorescence; ≥ and ≤ were set here for values at or beyond the usual limits of such assays; conditions: source organism: Zaire ebolavirus
HLA-B*44:02 [16] = assay: IEDB peptide-MHC binding, purified MHC/competitive/radioactivity; filed as Kd, often an IC50 or EC50 that approximates it; ≥ and ≤ were set here for values at or beyond the usual limits of such assays; conditions: source organism: Dengue virus 1 Brazil/97-11/1997
[17] = source organism: Dengue virus 1 Brazil/97-11/1997
[18] = source organism: Mammarenavirus brazilense
[19] = source organism: SARS coronavirus Tor2
[20] = source organism: Dengue virus 3 Martinique/1243/1999
[21] = source organism: Mammarenavirus guanaritoense

Sequence: APHHKILAKA
- Kd (HLA-B*07:02 [1]): 407 nM

Sequence: AQKRTAAGIM
- Kd (HLA-B*15:01 [2]; [17]): 25.6 nM

Sequence: DEALRGFLLY
- Kd (HLA-A*01:01 [3]; [18]): 14800 nM
- Kd (HLA-A*24:02 [4]; [18]): ≥ 37500 nM
- Kd (HLA-A*30:02; [18]): ≥ 69700 nM
- Kd (HLA-A*26:01 [5]; [18]): ≥ 69700 nM
- Kd (HLA-A*23:01; [18]): 5860 nM
- Kd (HLA-A*29:02; [18]): ≥ 59100 nM

Sequence: DEEPMELDY
- Kd (HLA-A*01:01 [3]; [19]): 2000 nM
- Kd (HLA-A*24:02 [4]; [19]): ≥ 77600 nM
- Kd (HLA-A*30:02; [19]): ≥ 42000 nM
- Kd (HLA-A*26:01 [5]; [19]): ≥ 73600 nM
- Kd (HLA-A*23:01; [19]): ≥ 59000 nM
- Kd (HLA-A*29:02; [19]): 1130 nM

Sequence: DENPYKTWAY
- Kd (HLA-B*44:03; [20]): 8.64 nM

Sequence: DHEFVDEFY
- Kd (HLA-A*01:01 [3]; [19]): 262 nM
- Kd (HLA-A*24:02 [4]; [19]): ≥ 77600 nM
- Kd (HLA-A*30:02; [19]): ≥ 22500 nM
- Kd (HLA-A*26:01 [5]; [19]): 13900 nM
- Kd (HLA-A*23:01; [19]): ≥ 66200 nM
- Kd (HLA-A*29:02; [19]): 1170 nM

Sequence: DTVWEVQGY
- Kd (HLA-A*01:01 [3]; [19]): 8020 nM
- Kd (HLA-A*24:02 [4]; [19]): ≥ 77600 nM
- Kd (HLA-A*30:02; [19]): 1320 nM
- Kd (HLA-A*26:01 [5]; [19]): 1.64 nM
- Kd (HLA-A*23:01; [19]): ≥ 77800 nM
- Kd (HLA-A*29:02; [19]): 4250 nM

Sequence: DVIGNDRQE
- Kd (HLA-B*44:02 [6]): ≥ 20000 nM
- Kd (HLA-A*02:01 [7]): ≥ 20000 nM
- Kd (HLA-B*07:02 [8]): ≥ 20000 nM
- Kd (HLA-A*69:01): ≥ 20000 nM
- Kd (HLA-A*01:01 [9]): ≥ 20000 nM
- Kd (HLA-B*58:01): ≥ 20000 nM
- Kd (HLA-B*08:01 [10]): ≥ 20000 nM
- Kd (HLA-A*11:01): ≥ 20000 nM
- Kd (HLA-A*26:01 [11]; source organism: Brucella suis): ≥ 20000 nM
- Kd (HLA-A*03:01): ≥ 20000 nM
- Kd (HLA-A*31:01): ≥ 20000 nM
- Kd (HLA-B*40:01): ≥ 20000 nM
- Kd (HLA-B*15:01 [12]): ≥ 20000 nM
- Kd (HLA-B*27:05): ≥ 20000 nM

Sequence: EMVMCGGSLY
- Kd (HLA-A*01:01 [3]; [19]): 468 nM
- Kd (HLA-A*24:02 [4]; [19]): ≥ 70300 nM
- Kd (HLA-A*30:02; [19]): 38.1 nM
- Kd (HLA-A*26:01 [5]; [19]): 19.9 nM
- Kd (HLA-A*23:01; [19]): ≥ 70000 nM
- Kd (HLA-A*29:02; [19]): 13.9 nM

Sequence: ERPVILSLP
- IC50 (HLA-A*24:02 [13]; source organism: Variola virus): 18400 nM

Sequence: EYADVFHLY
- Kd (HLA-A*01:01 [3]; [19]): ≥ 26200 nM
- Kd (HLA-A*24:02 [4]; [19]): 784 nM
- Kd (HLA-A*30:02; [19]): 10.8 nM
- Kd (HLA-A*26:01 [5]; [19]): 27.7 nM
- Kd (HLA-A*23:01; [19]): 176 nM
- Kd (HLA-A*29:02; [19]): 48.8 nM

Sequence: FFQDIPIFF
- Kd (HLA-A*24:02 [4]; [21]): 159 nM
- Kd (HLA-A*23:01; [21]): 10.3 nM
- Kd (HLA-A*29:02; [21]): 0.08 nM

Sequence: FGVDGEAGF
- Kd (HLA-A*26:01 [11]; source organism: Mycobacterium tuberculosis variant bovis): ≥ 20000 nM

Sequence: FIYLLFASM
- Kd (HLA-B*08:01 [14]): 1680 nM
- Kd (HLA-B*15:01 [2]; source organism: Vaccinia virus WR): 999 nM

Sequence: FRFEVKKRD
- IC50 (HLA-A*02:01 [15]): ≥ 733000 nM
- IC50 (HLA-A*24:02 [13]; source organism: Zaire ebolavirus): 19500 nM

Sequence: GYLKPTTFML
- Kd (HLA-A*01:01 [3]; [19]): ≥ 28400 nM
- Kd (HLA-A*24:02 [4]; [19]): 103 nM
- Kd (HLA-A*30:02; [19]): 5130 nM
- Kd (HLA-A*26:01 [5]; [19]): ≥ 69700 nM
- Kd (HLA-A*23:01; [19]): 33.6 nM
- Kd (HLA-A*29:02; [19]): 1020 nM

Sequence: IEEVMRSRW
- Kd (HLA-B*44:02 [16]): 178 nM
- Kd (HLA-B*44:03; [17]): 36.6 nM

Sequence: IESEKNETW
- Kd (HLA-B*44:02 [16]): 87 nM
- Kd (HLA-B*44:03; [17]): 279 nM

Sequence: IQNSGGTSIF
- Kd (HLA-B*15:01 [2]; [20]): 3.01 nM

Sequence: IQTSGTTTIF
- Kd (HLA-B*15:01 [2]; [17]): 5.3 nM
